Measured values: publication PMC7508878
Where “and” joins values, the source holds several entries; their conditions need not be identical. Equal values may be shown once.

How the values were obtained:
[1] = target: major capsid protein (MCP) of varicella-zoster virus (varicella-zoster virus (strain vOka)) (UniProt P09245); experiment: cryo-EM structure; VZV A-capsids purified from infected MRC-5 cells, in 1x PBS; single-particle reconstruction with block-based (localized) reconstruction of an asymmetric unit, 3.7 Å
[2] = target: Tri1 protein of the varicella-zoster virus heterotriplex (varicella-zoster virus (strain vOka)); experiment: as above

Substance	stoichiometry N [1]	stoichiometry N (Tri2 per Tri1) [2]
major capsid protein (MCP) of varicella-zoster virus (from UniProt P09245 1-1396) (natural protein)	5 and 6	
Tri2 protein of the varicella-zoster virus heterotriplex (natural protein)		2
